Measured values reported in US20220348894, “DNA MODIFYING ENZYMES AND ACTIVE FRAGMENTS AND VARIANTS THEREOF AND METHODS OF USE” (LifeEDIT Therapeutics, Inc., published 2022).

T1: APG07433.1 (Bacillus sp.)
T1 chain: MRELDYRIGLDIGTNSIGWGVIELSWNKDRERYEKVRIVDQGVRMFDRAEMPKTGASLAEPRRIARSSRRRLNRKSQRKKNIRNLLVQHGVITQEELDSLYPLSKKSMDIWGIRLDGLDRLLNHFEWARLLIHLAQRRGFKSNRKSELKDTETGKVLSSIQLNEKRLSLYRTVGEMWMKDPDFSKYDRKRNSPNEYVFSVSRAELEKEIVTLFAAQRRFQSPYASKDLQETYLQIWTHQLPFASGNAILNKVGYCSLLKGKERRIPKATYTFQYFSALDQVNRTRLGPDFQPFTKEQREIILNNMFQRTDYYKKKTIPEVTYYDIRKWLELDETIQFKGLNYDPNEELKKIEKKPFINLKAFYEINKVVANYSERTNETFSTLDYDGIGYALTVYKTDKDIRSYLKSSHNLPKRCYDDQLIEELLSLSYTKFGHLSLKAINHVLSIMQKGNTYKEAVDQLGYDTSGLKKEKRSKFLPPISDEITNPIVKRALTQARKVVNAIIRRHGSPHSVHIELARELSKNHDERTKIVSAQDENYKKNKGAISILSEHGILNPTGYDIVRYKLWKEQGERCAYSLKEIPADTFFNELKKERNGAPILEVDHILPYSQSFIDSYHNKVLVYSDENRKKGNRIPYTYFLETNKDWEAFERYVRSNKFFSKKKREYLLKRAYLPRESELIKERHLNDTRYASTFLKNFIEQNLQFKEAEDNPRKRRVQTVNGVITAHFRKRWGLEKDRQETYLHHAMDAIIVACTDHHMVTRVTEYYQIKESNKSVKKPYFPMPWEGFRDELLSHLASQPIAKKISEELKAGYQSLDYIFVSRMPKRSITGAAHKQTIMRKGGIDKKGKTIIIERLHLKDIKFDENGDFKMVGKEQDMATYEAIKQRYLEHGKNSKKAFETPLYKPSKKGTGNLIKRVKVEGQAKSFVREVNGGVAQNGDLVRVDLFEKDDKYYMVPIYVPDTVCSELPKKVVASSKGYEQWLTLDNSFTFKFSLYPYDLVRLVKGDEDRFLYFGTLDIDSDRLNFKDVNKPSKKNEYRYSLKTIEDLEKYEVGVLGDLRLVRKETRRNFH

T2: APG07433.1-del (residues 590-597 deleted)
T2 chain: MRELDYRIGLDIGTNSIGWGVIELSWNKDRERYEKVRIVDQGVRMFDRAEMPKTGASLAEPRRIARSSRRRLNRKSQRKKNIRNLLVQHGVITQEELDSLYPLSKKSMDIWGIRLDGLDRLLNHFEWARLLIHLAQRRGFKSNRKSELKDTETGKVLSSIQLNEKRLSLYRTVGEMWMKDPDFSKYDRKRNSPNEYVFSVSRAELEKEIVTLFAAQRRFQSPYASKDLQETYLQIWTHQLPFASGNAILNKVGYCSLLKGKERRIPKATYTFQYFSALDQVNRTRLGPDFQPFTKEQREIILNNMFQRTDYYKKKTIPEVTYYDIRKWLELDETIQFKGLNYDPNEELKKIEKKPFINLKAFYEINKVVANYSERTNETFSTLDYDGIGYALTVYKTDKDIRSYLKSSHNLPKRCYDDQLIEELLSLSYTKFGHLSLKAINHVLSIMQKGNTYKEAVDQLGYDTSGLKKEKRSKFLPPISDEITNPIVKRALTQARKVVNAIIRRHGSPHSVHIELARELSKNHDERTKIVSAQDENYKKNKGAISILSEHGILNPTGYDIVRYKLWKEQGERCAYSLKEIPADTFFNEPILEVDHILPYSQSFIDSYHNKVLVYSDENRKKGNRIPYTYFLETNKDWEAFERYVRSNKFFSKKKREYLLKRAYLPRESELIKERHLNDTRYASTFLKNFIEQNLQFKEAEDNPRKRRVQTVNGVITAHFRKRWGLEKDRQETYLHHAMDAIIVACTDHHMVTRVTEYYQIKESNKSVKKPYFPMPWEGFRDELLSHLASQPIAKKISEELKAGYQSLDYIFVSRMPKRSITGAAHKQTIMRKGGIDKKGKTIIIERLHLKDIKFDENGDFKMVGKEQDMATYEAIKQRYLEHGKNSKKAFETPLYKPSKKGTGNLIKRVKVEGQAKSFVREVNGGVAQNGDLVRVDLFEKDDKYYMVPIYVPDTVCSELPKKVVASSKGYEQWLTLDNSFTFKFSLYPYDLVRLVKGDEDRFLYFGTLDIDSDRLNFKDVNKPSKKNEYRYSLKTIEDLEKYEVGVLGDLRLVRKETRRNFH

T3: APG08290.1 (Bacillus sp.)
T3 chain: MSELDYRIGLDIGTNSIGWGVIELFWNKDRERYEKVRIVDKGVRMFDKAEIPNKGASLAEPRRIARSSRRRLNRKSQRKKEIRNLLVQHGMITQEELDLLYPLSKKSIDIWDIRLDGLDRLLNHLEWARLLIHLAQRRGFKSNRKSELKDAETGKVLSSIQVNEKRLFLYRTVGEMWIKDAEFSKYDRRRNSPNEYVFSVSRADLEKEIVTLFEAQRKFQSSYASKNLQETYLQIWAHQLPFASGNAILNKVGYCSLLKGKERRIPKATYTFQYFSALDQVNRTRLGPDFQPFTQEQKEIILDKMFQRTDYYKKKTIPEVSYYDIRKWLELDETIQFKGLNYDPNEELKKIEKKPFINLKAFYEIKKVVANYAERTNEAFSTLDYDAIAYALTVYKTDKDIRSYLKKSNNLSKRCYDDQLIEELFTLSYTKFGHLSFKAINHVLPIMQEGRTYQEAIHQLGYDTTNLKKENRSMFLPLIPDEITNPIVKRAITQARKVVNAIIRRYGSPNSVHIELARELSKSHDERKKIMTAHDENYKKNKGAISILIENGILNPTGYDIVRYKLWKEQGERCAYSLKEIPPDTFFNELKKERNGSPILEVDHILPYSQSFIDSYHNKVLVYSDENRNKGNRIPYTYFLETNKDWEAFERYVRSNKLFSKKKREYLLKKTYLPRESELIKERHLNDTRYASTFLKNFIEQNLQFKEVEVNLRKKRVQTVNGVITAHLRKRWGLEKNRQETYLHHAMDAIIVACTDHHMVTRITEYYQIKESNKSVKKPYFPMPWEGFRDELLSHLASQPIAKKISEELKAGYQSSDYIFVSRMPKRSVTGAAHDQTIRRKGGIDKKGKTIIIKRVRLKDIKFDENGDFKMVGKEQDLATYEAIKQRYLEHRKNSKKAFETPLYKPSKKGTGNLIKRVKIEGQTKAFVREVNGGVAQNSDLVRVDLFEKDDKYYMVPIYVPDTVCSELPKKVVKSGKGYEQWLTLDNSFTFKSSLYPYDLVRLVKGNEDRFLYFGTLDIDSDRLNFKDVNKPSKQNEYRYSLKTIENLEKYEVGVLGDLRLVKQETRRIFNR

T4: APG08290.1-del
T4 chain: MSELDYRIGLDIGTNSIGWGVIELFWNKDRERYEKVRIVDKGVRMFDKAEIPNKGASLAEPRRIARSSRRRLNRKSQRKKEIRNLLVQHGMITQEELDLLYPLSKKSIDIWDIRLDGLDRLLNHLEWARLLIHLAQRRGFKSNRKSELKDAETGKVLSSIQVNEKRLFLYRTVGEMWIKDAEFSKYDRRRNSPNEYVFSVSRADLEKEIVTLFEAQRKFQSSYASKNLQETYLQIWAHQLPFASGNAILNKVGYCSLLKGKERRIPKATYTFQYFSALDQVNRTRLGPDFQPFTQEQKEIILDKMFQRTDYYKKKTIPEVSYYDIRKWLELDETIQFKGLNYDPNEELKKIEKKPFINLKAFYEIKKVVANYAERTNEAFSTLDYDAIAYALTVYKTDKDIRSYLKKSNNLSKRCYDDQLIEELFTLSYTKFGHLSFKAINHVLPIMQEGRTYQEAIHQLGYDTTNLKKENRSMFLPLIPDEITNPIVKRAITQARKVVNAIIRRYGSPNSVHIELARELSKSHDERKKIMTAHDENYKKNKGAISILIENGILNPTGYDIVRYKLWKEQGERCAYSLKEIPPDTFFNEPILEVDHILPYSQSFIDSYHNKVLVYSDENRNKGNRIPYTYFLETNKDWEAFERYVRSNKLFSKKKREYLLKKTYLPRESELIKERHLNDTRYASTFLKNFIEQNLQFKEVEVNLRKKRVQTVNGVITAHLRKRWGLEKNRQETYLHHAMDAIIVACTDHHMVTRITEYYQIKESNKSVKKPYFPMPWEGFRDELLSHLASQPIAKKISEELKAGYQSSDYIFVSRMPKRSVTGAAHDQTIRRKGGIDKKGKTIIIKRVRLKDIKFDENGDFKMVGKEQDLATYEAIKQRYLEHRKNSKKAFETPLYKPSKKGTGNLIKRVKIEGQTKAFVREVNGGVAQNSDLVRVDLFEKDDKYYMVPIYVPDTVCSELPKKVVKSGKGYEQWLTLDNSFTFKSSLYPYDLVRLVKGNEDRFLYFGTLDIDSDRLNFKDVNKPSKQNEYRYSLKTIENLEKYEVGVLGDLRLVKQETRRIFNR

B1: SGN000169 sgRNA ; SGN000169 target (ssRNA ; dsDNA)
RNA: CACAUCUCGAGCAAGACGUUGUCAUAGUUCCAUUAAAGCCAAAAGUGGCUUUGAUGUUUCUAUGAUAAGGGUUUCGACCCGUGGCGUCGGGGAUCGCCUGCCCAUUGAAAUGGGCUUCUCCCCAUUUAUU
DNA 1: CACATCTCGAGCAAGACGTT
DNA 2: AACGTCTTGCTCGAGATGTG
B2: SGN000186 sgRNA (Table 32) ; SGN000186 target (Table 32) (ssRNA ; dsDNA)
RNA: GGACAGUGCGCAUCUCCCUGGUCAUAGUUCCAUUAAAGCCAAAAGUGGCUUUGAUGUUUCUAUGAUAAGGGUUUCGACCCGUGGCGUCGGGGAUCGCCUGCCCAUUGAAAUGGGCUUCUCCCCAUUUAUU
DNA 1: GGACAGTGCGCATCTCCCTG
DNA 2: CAGGGAGATGCGCACTGTCC
B3: SGN000139 sgRNA (Table 32) ; SGN000139 target (Table 32) (ssRNA ; dsDNA)
RNA: AGGUUUUAAUGGCCCAGCCUGUCAUAGUUCCAUUAAAGCCAAAAGUGGCUUUGAUGUUUCUAUGAUAAGGGUUUCGACCCGUGGCGUCGGGGAUCGCCUGCCCAUUGAAAUGGGCUUCUCCCCAUUUAUU
DNA 1: AGGTTTTAATGGCCCAGCCT
DNA 2: AGGCTGGGCCATTAAAACCT
B4: SGN000929 sgRNA ; SGN000929 target (ssRNA ; dsDNA)
RNA: AUCUGGAGGGAACUUACAGCAUAUGGUCAUAGUUCCAUGAAAGCCAAAAGUGGCUUUGAUGUUUCUAUGAUAAGGGUUUCGGCCCGUGGCGUCGGGGAUCGCCUGCCCAUUCCGAUGGGCUUCUCCCCAUUUAUU
DNA 1: ATCTGGAGGGAACTTACAGCATATG
DNA 2: CATATGCTGTAAGTTCCCTCCAGAT
B5: SGN000930 sgRNA (Table 33) ; SGN000930 target (Table 33) (ssRNA ; dsDNA)
RNA: GAACAACUCAAAUGGAAAUGAAUAUGUCAUAGUUCCAUGAAAGCCAAAAGUGGCUUUGAUGUUUCUAUGAUAAGGGUUUCGGCCCGUGGCGUCGGGGAUCGCCUGCCCAUUCCGAUGGGCUUCUCCCCAUUUAUU
DNA 1: GAACAACTCAAATGGAAATGAATAT
DNA 2: ATATTCATTTCCATTTGAGTTGTTC

Key:
APG07433.1 = biological target: T1, APG07433.1; assay: cell_activity; editing rate HEK293T; PAM 3' of target
Excerpt: (§1) Through alignment with closely related homologs, a unique 8 amino acid region at positions 590-597 was identified in APG07433.1 and its close homolog APG08290.1 (described in WO 2019/236566 and set forth herein as SEQ ID NO: 60). This region, set forth as SEQ ID NO: 365 for APG07433.1 and SEQ ID NO: 367 for APG08290.1, was removed from both proteins, resulting in variant RGNs APG07433.1-del (SEQ ID NO: 366) and APG08290.1-del (SEQ ID NO: 368). These deletion variants and their corresponding wild-type RGNs were assayed for editing activity in HEK293T cells using the guide RNAs indicated in Tables 32 and 33 following methods similar to those described in Example 1.

[1] = biological target: T2, APG07433.1-del (residues 590-597 …); assay: as above
Excerpt: as §1

APG08290.1 = biological target: T3, APG08290.1; assay: cell_activity; editing rate HEK293T; PAM not stated
Excerpt: as §1

APG08290.1-del = biological target: T4, APG08290.1-del; assay: as above
Excerpt: as §1

Row | Binder | activity (APG07433.1) [%] | activity [1] [%] | activity (APG08290.1) [%] | activity (APG08290.1-del) [%]
1 | B1 | 13.4 | 15.5 | – | –
2 | B2 | – | 15.2 | – | –
3 | B3 | 11.1 | – | – | –
4 | B4 | – | – | 1.83 | 0.61
5 | B5 | – | – | 9.93 | 6.47
